Test results taken from the nanobody polyreactivity screen of Harvey et al. (2022).

assay: yeast display, Sf9 membrane polyspecificity reagent, FACS + sequencing; frameworks hold sequencing errors
How it was run: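 Galactose-induced (36–48 hours) yeast carrying a synthetic nanobody display library were exposed to 10% biotinylated, detergent-solubilized Sf9 membrane reagent at 4 °C for 1 hour. FACS followed streptavidin microbead enrichment, using low and high (top ~1%) gates for expression (anti-HA) and reagent binding (streptavidin). Colony PCR, MiSeq 2 × 250 sequencing and CDR-length filtering followed. Labels for polyreactivity reflect the gate of origin.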

Row | Sequence | polyreactivity (PSR sort gate)
1 | QDQLVESGGGLVQAGGSLRLSCADSGRIFCINAMGWYRQAPGKERELVAAINWSGGSTYYADSVKGRFTISRDNAKNTVYLQMNSLKPEDTAVYYCAAQKYKRVGYWGQGTQVTVSS | high polyreactivity
2 | QDQLVESGGGLVQAGGSLRLSCASSGITIATNAMGWSRQAPGKERELVAAISWSGGSTYYADSVKGRFTISRDNAKNTVFLQMNSLKPEDTAVYYCATGYSVWYDYWGQGTQVTVSS | low polyreactivity
3 | QDQLVESGGGLVQAGGSLRLSCASSGSTFVRYAMGWYRQAPGKERELVATISKSGGSTSYADSVKGRFTISRDNAKNTVYLQMNSLKPEDTAVYYCAADFLYIWAIFDYWGQGTQVTVSS | low polyreactivity
4 | QDQLVESGGGLVQAGGSLRLSCDASGRIFWVYVMGWYRQAPGKERELVADITSIGGSTYYADSVKGRFTISRDNAKNTVYLQMNSLKPEDTAVYSCAADVDGYPYYQYKMGYWGQGTQVTVSS | low polyreactivity
5 | QDQLVESGGGLVQAGGSLRLSCSASGRIFTRNTMGWYRQAPGKERELVAAITSRGGSTYYADSVKGRFTISRDNAKNTVYLQMNSLKPEDTAVYDCAADKPRSYYYWGQGTQVTVSS | high polyreactivity
6 | QDQLVESGGGLVQAGGSLRLSCSASGRTFHRNAMGWYRQAPGKERESVAAITGDGRTNYADSVKGRFTISRDNAKNTVYLQMNSLKPEDNAVYYCAARFSYRSYDYWGQGTQVTVSS | low polyreactivity
7 | QDQLVESGGGLVQAGGSLRLSSAASGLTLHGNAMGWYRHAPGKERELVATITSSGGSTFYADSVKGRFTLSRDNAKNTVYLKMNSMKPEDTAVYYCNADAPYSVDYYVRFDYWGQGTQVTVSS | low polyreactivity
8 | QDQLVESGGGLVQAGGSLRLSSAASGSIFRGYAMGWYRQAPGKERELVAAITFSGGSTYADSVKGRFTISRDNAKITVYLQMNSLKPEDTAVYYCAAKRTGHNWFTVYPYYSWGQGTQVTVSS | low polyreactivity
9 | QDQLVESGGGLVQAGGSLRLTCAASGSIFRYYVMGWYRQAPGKERELVAGISSSGGRTYYADSVKGRFTISRDNANNTVYLQMNSLKPEDTAVYYCNAVTSRRPYDYWGHGTQVTVSS | high polyreactivity
10 | QDQLVESGGGLVQAGGSLRLTCAASGSIFSANVMGWYRQAPGKERELVAAIRRGGTTYYADSVKGRFTISRDNSKNTVYLQMNRLNPEDSAVYYCATDGIFGSYLRFEVAYDYWGQGTQVTVSS | low polyreactivity
11 | QDQLVESGGGLVQAGGSLRLTCAASGSIIVRYAMGWYRQAPGKERELVASISKRGGSTYYADSVKGRFTISRDNAKNTVYLQMNSLKPEDTAVYYCAAVGYYLVKFDYWGQGTQVTVSS | high polyreactivity
12 | QDQLVESGGGLVQAGGSLSLSCAASGSIFETYDMGWYRQAPGKERELVAAISLSGGSTYYADSVKGRFTISRDNAKNTVYLQMYSLKPEDTAVYYCASDTYYVSYGYYYWGLGTQVTVSS | low polyreactivity
13 | QDQLVESGGGLVQAGRSLRLSCAASGRTFRTYTMGWYRQAPGKERELVAAISRGGSTNYADSVKGRFTISRDNEKNTVYLQMNSLKPEDTAVYYCNAKASFCSPYDYWGQGTQVTVSS | high polyreactivity
14 | QDQLVESGGGLVQAGVSLRLICAASGRTFYLYAIGWYRQAPGKERELVAAITWGGATTYYADSVKGRFTISRDNAKNTVYLQMNSLKPEVTAVYYCAAGGYTVWHYQYYAMDYCGQGTQVTVSS | low polyreactivity
15 | QDQLVESGGGLVQAVGSLRLSCAASGFTFYRNAMGWYRQAPGKERELVAAITWSGTSTYFADSVKGRFTISRDNAQNTVYLQLNSLKPEDTAVYYCNARGFQKSDPRGYLILNYWGQGTQVTVSS | high polyreactivity
16 | QDQLVESGGGLVQAVGSLRLSCAASGSTFGLYAMGWYRQAPGKERELVAAITIRGGSTYYADSVKGRFTISRDNAKKTVYLQMNSLKPEDTAVYYCAADYWYGCFEYWGQGTQVTVSS | low polyreactivity
17 | QDQLVESGGGLVQEGGSLRLICAASGRTLQSYAMGGYRQAPGKERELVAAISGGASTYADSVKGRFTISRDNAKNTVYLQMNSLKPEDTAVYYCAADDDPVPTYEYDYWGQGTQVTVSS | low polyreactivity
18 | QDQLVESGGGLVQEGGSLRLSCAASGSTFPYNAMGWYRQAPGKERELVAAITRRAGRTYYADSVKGRFTISRDNAKNTVYLQLNSLKTEDTAVYYCAKSYQRGVYHYVYWGQVTQVTVSS | high polyreactivity
19 | QDQLVESGGGLVQEGGSLRLSCAAYGTIFQIYAMGWYIQAPGKERELVAAINSGGISKYADSVKGRFTISRDNAKNSVYLQMNSLTPADTAVYYCAASVDTGRYSVYYHGYTYDYWGQGTQVTVSS | low polyreactivity
20 | QDQLVESGGGLVQWGRSLGIRCAASGRIFNVKAMGWYRQAPGNEREFDAAISGSVGSTYYADSVKGRFTISRDNAKYSVYLQHNSLKRLDTAVYYCAARYGYDRNRRPGYVYWGQGTQVTVSS | low polyreactivity
21 | QDQLVESGGGVVQAGGSLRLSCAASGSIFAYNAMGWYRQAPGKERELVAAITDSGGSTFYADSVKGRFTISRDNAKNTVYLQMNSLKPEDTAVYYCATSGDRLVWGQGTQVTVSS | low polyreactivity
22 | QDQLVESGRGIFKAGGSLRLSCAASGSIFGDNAMGWSRHAPGKDRELVAAISSGGPTYADSVKGRFTISRDNAKNTVYLQMNSLKAEDSAVYFCNATDGINPYDLTDFEFDYWGQGTEVTVSS | low polyreactivity

Row | Sequence | polyreactivity (PSR sort gate)
23 | QDQLVESGRGLVQAGGNLRLSCAPSRSIFTTYAMGWYRQARGKERHFVATITSSDSTNYADSVKGRFTISRDNAKNTVYLQMNSLNPEETAVYYCNAGGDRTVSVAWYSADDFWGQGTQVTVSS | low polyreactivity
24 | QDQLVESGRGLVQAGGSLRLSCAASGSTFDGKAMGWSRQAPGKERELVATISNSGGRSYYADSVKGRFTISRDNAKNTVYLQMNSLKPEETAVYYCAADHPAFGPGYSFDYWGQGTQVTVSS | low polyreactivity
25 | QDQLVESGVGLVHAGGSLRLSCAATGRIFTYNAMGWYRQAPWKEREVVAAITSSGGSTYYADSVKGRFTISRDNAKNTVYLQMNSLKQEDSAVSYCATVRRGRDYWGQGTQVTVSS | high polyreactivity
26 | QDQLVESGVGLVQAGGSHRLSCAASGSIFGWYARGWYRQAPGKERELGATITTGGSTNYADSVKGRFTISRDNAKNTVYLQMNSLKPEDTAVYYCAAGYNTWYGQYGYWGQGTQVTVSS | low polyreactivity
27 | QDQLVESGVGLVQAGGSLRLSCASSGRIFDPYAMGWYRQAPGKERELVARITWRGGRTYYADSVKVRFTISLDNAKNTVYLQMNSLKPEDTAVFYCNADFYYRYYCAYDYWGQGTQVTVSS | high polyreactivity
28 | QDQLVESRGALVQAGGSLRLSCAASGITFVRNAMGWYRQAPGKERELVAAISSGGSTYYADSVKGRFTISRDNAKNTVYLQMNSLTREDTAVYYCAVLSSWRFSGYDYWGQGSQVTVSS | low polyreactivity
29 | QDQLVESRGGLVQAGGSLRLSCAASGIIFGYYAMGWYRQAPGKERELVAAISRRGGSTYYADSVKGRFTISRDNAKNTVYLQMNSLKPEDTAVYYCAAVELRLSTPDMESWGQGTQVTVSS | high polyreactivity
30 | QDQLVESVGGLVQAGGSLRLSCAASASTFGSNAMGWYRQAPGKDREFVAAISRRGGSTYYADSVKGRFTFSRDNAKNTVYLQMNSLKPEDTAVYYCAADYISLREEHYWGHGTQVTVSS | high polyreactivity
31 | QDQLVESVGGLVQAGGSLRLSCAASGLIFYYYDMGWYRQAPGKERELVAAISSRGSSTYYADSVKGRFTISRVNAKNTVYLQMNSLKPEDTAVYYCAADSVSKYFGYDYWGQGTQVTVSS | high polyreactivity
32 | QDQLVESVGGLVQAGGSLRLSCAASGSIFNRYVMGCYSQAPGKERELVAAMSRRGGNTYYADSVKGRFTISRDNAKNTVYLQMNSLKPEATAVYYCAADYSYYYGYDYWGQGTQVTVSS | high polyreactivity
33 | QDQLVESVGGLVQAGGSLRLSCAASGSTISLYAMGWYRQAPGKERELVAAISQSGSRTYFADSVKGRFTISRDNAKNTVYLQMISLKQEDTAVYYCAAYSPQTYLRWTYGYWGQGTQVTVSS | high polyreactivity
34 | QDQLVQSGGGLVQAGGSLRKSCAASGSTFNPNTMGWNKQAPGKERELVASITWRGGRTYYADSVKGRFTISRDNAKNTVSLQMNSLKPEDTAVFYCASVTFSYDGYDYWGQGTQVTVTS | low polyreactivity
35 | QDQLVQSGGGLVQAGGSLRLSCAASGRTFGKYAMGWYRQAPGKERELVAAITGGGGTKYADSVKGRFTISGDNAKNSVYLQMNSLKPEDTAVYYCAAASGSRRHGYWGQGTQVTVSS | high polyreactivity
36 | QDQLVQSGGGLVQAGGSLRLSCDASGSTLNWYAMGRYRQAPGKERELVAVITSSGVSTYYADSVKGRFTISRDNAKNTVYLQMNSLKPEDTAVYYCNAKWYRWQRGTVKYDYWGQGTQVTVSS | low polyreactivity
37 | QDQRVESGGGLVQAGGSLRLSCAASGRTFKGNARGWYRQAPGKERELVAAISKSGGRTYYADSVKARFTISRDNAKNTVYLQMNSLKPEDTAVYYCAVDEGPTIVRFGYSGQGTQVTVSS | high polyreactivity
38 | QEHLVESGGGLVQAGGSLRLSCAAYGSIFVSYAMGWYRQAPGKERELVAAISWSGGSTYYADSVKGRFTISRDNAKNTVYLQMNSLKPEDTAVYYCNGVPSEGFDWGQGTQVTVSS | low polyreactivity
39 | QEQLQESGGCLVQAGGSLRLSCAASGSIFKVVDMGLYRQSPAKEREFVATIGEGGKTYYADSVKGRFTISRDNEKNTVYLQMNSLKPEDTAVYFYAVVLGTSYRYTYWGEGTQVTVSS | low polyreactivity
40 | QEQLQESGGGLEQPGGSLRLSCAASGSISGSSTMGWYRQAQGKERELVASIAVGANTNYADSAKGRFTISRDNAKNPVYLQMNSLKPEDTAVYYCAVDYYIYYFHYWGQATQVTVSS | high polyreactivity
41 | QEQLQESGGGLVQACGSLRLSCAASGSISGSSTMGWYRQAPGKERELVASIAVGANTNYADSAKGRFTISRDNAKTTVYLQMNSLKPEDSAVYYCAADYWFGYGTYEYWGQGTQVTVSS | high polyreactivity
42 | QEQLQESGGGLVQAGCSLRLSCAANGYIFSVEYMGCYCLAPGKEREFVATINYDTSTYYADSVKGRFTISRDNAKNTVYLQMNSLKPEDTAVYYCAAYFYAYRSPGYWGLGTQVTVSS | high polyreactivity
43 | QEQLQESGGGLVQAGGSLCLSCAASGTIFFDGDMGWYRQAPGKEREFVAAINPGGSAYYADSVKGRLPLAAITHTVYLQMNSLKPEDTAVYYCAAKLFDVYGYYYWGQGTHVTVSS | low polyreactivity
